Source: paper PMC9675734

Columns and labels:
[1] = target: soluble domain of Arabidopsis thaliana cytochrome c1 (Arabidopsis thaliana) (UniProt Q9FKS5); test: SPR; SPRi; Cc1 immobilised by direct amine coupling on a CS SPRi-Biochip (10 and 15 uM drops); WT or Y48pCMF Cc flowed at 2.5 to 10 uM, 50 uL/min; 298 K; 10 mM sodium phosphate buffer pH 6.5; reference spots with rabbit serum albumin subtracted; 1:1 binding model
[2] = target: soluble domain of Arabidopsis thaliana cytochrome c1 (Arabidopsis thaliana) (UniProt Q9FKS5); test: single-molecule force spectroscopy (AFM); Cc1 anchored on Au(111); Cc (E104C) anchored to the silicon AFM tip through a PEG27 linker; retraction at 1 um/s; 50 mM phosphate buffer pH 6.5; room temperature
Target sequence in this assay (Q9FKS5 64-265): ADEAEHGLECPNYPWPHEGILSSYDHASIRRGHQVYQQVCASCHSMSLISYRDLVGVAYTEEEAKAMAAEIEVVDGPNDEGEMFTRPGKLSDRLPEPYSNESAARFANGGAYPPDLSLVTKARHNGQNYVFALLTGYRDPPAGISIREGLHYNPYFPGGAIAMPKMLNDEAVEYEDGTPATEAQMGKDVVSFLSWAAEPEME

[3] = target: soluble domain of Arabidopsis thaliana cytochrome c1 (Arabidopsis thaliana) (UniProt Q9FKS5)
Target sequence in this assay (Q9FKS5 64-265): as above

[4] = target: soluble domain of Arabidopsis thaliana cytochrome c1 (Arabidopsis thaliana) (UniProt Q9FKS5); test: dynamic force spectroscopy (AFM); Cc1 anchored on Au(111); Cc (E104C) anchored directly to Au-coated AFM tips by thiol-Au; retraction velocities 0.5 to 4 um/s; 50 mM phosphate buffer pH 6.5; Bell-Evans model
Target sequence in this assay (Q9FKS5 64-265): as above

Chain of Y48pCMF cytochrome c E104C (P99999 1-48, stated change not applied): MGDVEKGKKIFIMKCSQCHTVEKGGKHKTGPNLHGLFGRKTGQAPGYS

Row | conductance of current blinks (EC-STM static break junction, bias 0.8 V, 50 mM phosphate buffer pH 6.5), Gaussian fit of the main peak [3] [G0] | Substance | Kd [1] [nM] | koff [1] [s⁻¹] | kon [1] [M⁻¹ s⁻¹] | unbinding force Fr, centre of the Gaussian fit [2] [pN] | unbinding force Fr, mean [2] [pN] | rate of force-activated unbinding k^ou (Bell-Evans model) [4] [s⁻¹]
1 |  | Y48pCMF cytochrome c (from UniProt P99999 1-105) (natural protein) | 357 | 0.00358 | 10000 |  |  | 
2 | 7.4e-06 | Y48pCMF cytochrome c E104C (from UniProt P99999 1-105) (natural protein) |  |  |  | 77 | 91 | 48
